Publication PMC7804450, “Structural insights into TSC complex assembly and GAP activity on Rheb” (Nature Communications, 2021)

B1: tuberous sclerosis complex 1 (TSC1), human, subunit of the purified TSC complex (natural protein, UniProt Q92574 1-1164, looked up)
chain: MAQQANVGELLAMLDSPMLGVRDDVTAVFKENLNSDRGPMLVNTLVDYYLETSSQPALHILTTLQEPHDKHLLDRINEYVGKAATRLSILSLLGHVIRLQPSWKHKLSQAPLLPSLLKCLKMDTDVVVLTTGVLVLITMLPMIPQSGKQHLLDFFDIFGRLSSWCLKKPGHVAEVYLVHLHASVYALFHRLYGMYPCNFVSFLRSHYSMKENLETFEEVVKPMMEHVRIHPELVTGSKDHELDPRRWKRLETHDVVIECAKISLDPTEASYEDGYSVSHQISARFPHRSADVTTSPYADTQNSYGCATSTPYSTSRLMLLNMPGQLPQTLSSPSTRLITEPPQATLWSPSMVCGMTTPPTSPGNVPPDLSHPYSKVFGTTAGGKGTPLGTPATSPPPAPLCHSDDYVHISLPQATVTPPRKEERMDSARPCLHRQHHLLNDRGSEEPPGSKGSVTLSDLPGFLGDLASEEDSIEKDKEEAAISRELSEITTAEAEPVVPRGGFDSPFYRDSLPGSQRKTHSAASSSQGASVNPEPLHSSLDKLGPDTPKQAFTPIDLPCGSADESPAGDRECQTSLETSIFTPSPCKIPPPTRVGFGSGQPPPYDHLFEVALPKTAHHFVIRKTEELLKKAKGNTEEDGVPSTSPMEVLDRLIQQGADAHSKELNKLPLPSKSVDWTHFGGSPPSDEIRTLRDQLLLLHNQLLYERFKRQQHALRNRRLLRKVIKAAALEEHNAAMKDQLKLQEKDIQMWKVSLQKEQARYNQLQEQRDTMVTKLHSQIRQLQHDREEFYNQSQELQTKLEDCRNMIAELRIELKKANNKVCHTELLLSQVSQKLSNSESVQQQMEFLNRQLLVLGEVNELYLEQLQNKHSDTTKEVEMMKAAYRKELEKNRSHVLQQTQRLDTSQKRILELESHLAKKDHLLLEQKKYLEDVKLQARGQLQAAESRYEAQKRITQVFELEILDLYGRLEKDGLLKKLEEEKAEAAEAAEERLDCCNDGCSDSMVGHNEEASGHNGETKTPRPSSARGSSGSRGGGGSSSSSSELSTPEKPPHQRAGPFSSRWETTMGEASASIPTTVGSLPSSKSFLGMKARELFRNKSESQCDEDGMTSSLSESLKTELGKDLGVEAKIPLNLDGPHPSPPTPDSVGQLHIMDYNETHHEHS
notes: TSC1 (hamartin), human; ORF sub-cloned into a modified pCAG vector; Two copies (TSC1a, TSC1b) stand in the TSC complex (2:2:1); The sample for cryo-EM was cross-linked with glutaraldehyde (Grafix); also called TSC1a; TSC1b
B3: tuberous sclerosis complex 2 (TSC2), human, subunit of the purified TSC complex (natural protein)
chain: not shown
notes: TSC2 (tuberin), human; ORF sub-cloned into a modified pCAG vector; residues 127-936, 1015-1082, 1182-1245, 1494-1732 traced; Two copies (TSC2a, TSC2b) stand in the TSC complex (2:2:1); The sample for cryo-EM was cross-linked with glutaraldehyde (Grafix); also called TSC2a; TSC2b

Key:
Assay in all cases: cryo-EM structure; human TSC complex (TSC1, TSC2, TBC1D7) co-expressed in Expi293F, purified, cross-linked by Grafix (glutaraldehyde); single particle reconstruction, 4.4 Å overall, core 3.6 Å, wings 3.9 and 4.1 Å
[1] = target: B3; conditions: both partners purified
[2] = target: B1; conditions: both partners purified
[3] = target: the molecule itself

B1: binds [1].

B2: Tre2-Bub2-Cdc16-1 domain family member 7 (TBC1D7), human, subunit of the purified TSC complex (natural protein, UniProt Q9P0N9 1-293, looked up)
chain: MTEDSQRNFRSVYYEKVGFRGVEEKKSLEILLKDDRLDTEKLCTFSQRFPLPSMYRALVWKVLLGILPPHHESHAKVMMYRKEQYLDVLHALKVVRFVSDATPQAEVYLRMYQLESGKLPRSPSFPLEPDDEVFLAIAKAMEEMVEDSVDCYWITRRFVNQLNTKYRDSLPQLPKAFEQYLNLEDGRLLTHLRMCSAAPKLPYDLWFKRCFAGCLPESSLQRVWDKVVSGSCKILVFVAVEILLTFKIKVMALNSAEKITKFLENIPQDSSDAIVSKAIDLWHKHCGTPVHSS
notes: TBC1D7, human; ORF sub-cloned into a modified pCAG vector; residues 21-287 traced; One copy stands in the TSC complex (2:2:1); The sample for cryo-EM was cross-linked with glutaraldehyde (Grafix)
B2: binds [2].

B3 was tested, and the “stoichiometry N” value [3] was 2.
